# Data as given in patent US20200392236A1 (JUNO THERAPEUTICS, published 2020).
# T1: BCMA peptide 30SNTPPLTCQR39 (human)
# T1 construct: Peptide of the CLIPS library; recognised in a linear form
# T1 peptide: SNTPPLTCQR
# T2: human BCMA (B-cell maturation antigen) on cells (human, UniProt Q02223 1-184)
# T2 construct: whole, on cells; also called hBCMA; hBCMA/HEK293 cell line
# T2 sequence (looked up): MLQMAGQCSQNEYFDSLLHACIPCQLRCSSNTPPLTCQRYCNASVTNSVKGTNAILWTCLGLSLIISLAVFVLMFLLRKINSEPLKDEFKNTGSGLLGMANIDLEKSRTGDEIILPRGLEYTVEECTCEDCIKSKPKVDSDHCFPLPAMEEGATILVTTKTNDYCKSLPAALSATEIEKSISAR
# Target: T1, BCMA peptide 30SNTPPLTCQR39
# Test: CLIPS peptide array ELISA
# Method: Epitopes recognized, e.g., specifically bound to, by exemplary anti-BCMA scFv clones (BCMA-1, BCMA-5, BCMA-9, BCMA-23, BCMA-25, BCMA-26, BCMA-52 and BCMA-55 anti-BCMA scFvs), were assessed using full discontinuous epitope mapping by Chemical Linkage of Peptides onto Scaffolds (CLIPS; Pepscan Presto BV, Lelystad, The Netherlands; see, e.g., Timmerman et al., (2007) J. Mol. Recognit. 20: 283-329). Mapping was carried out using anti-BCMA scFv clones, such as those fused with mouse Fc (scFv-mFc).
# Linear and conformational peptide libraries of amino acid residues 1-54 of human BCMA (set forth as amino acid residues 1-54 of SEQ ID NO:367) were generated based on a combinatorial matrix design. Linear peptides and structural mimetics including single loop, α-helix, β-turn, combinatorial and linear disulfide bridge mimics, and discontinuous epitope mimics were used, along with positive and negative control peptides, on an amino-functionalized solid support.
# Affinities for binding to the peptides in the epitope library were determined using ELISA. The peptide arrays were incubated with a solution containing the scFv overnight at 4° C. Affinity information was used in iterative screens to define the sequence and conformation of epitopes. Heat maps of affinity information for two or more loops were generated.
row,binding result,Binder
1,binds,"BCMA-25 anti-BCMA scFv (scFv, VH-(G4S)3-VL scFv) scFv: EVQLVQSGGGLVQPGRSLRLSCTASGFTFGDYAMSWFRQAPGKGLEWVGFIRSKAYGGTTEYAASVKGRFTISRDDSKSIAYLQMNSLKTEDTAVYYCAAWSAPTDYWGQGTLVTVSSGGGGSGGGGSGGGGSDIQMTQSPAFLSASVGDRVTVTCRASQGISNYLAWYQQKPGNAPRLLIYSASTLQSGVPSRFRGTGYGTEFSLTIDSLQPEDFATYYCQQSYTSRQTFGPGTRLDIK"
2,binds,"BCMA-1 anti-BCMA scFv (scFv, VH-(G4S)3-VL scFv) scFv: QVQLVQSGGGLVQPGRSLRLSCTASGFTFGDYAMSWFRQAPGKGLEWVGFIRSKAYGGTTEYAASVKGRFTISRDDSKSIAYLQMNSLKTEDTAVYYCAAWSAPTDYWGQGTLVTVSSGGGGSGGGGSGGGGSDIVMTQSPDSLSVSPGERATISCKSSQSVLSTSNNKNYLAWYQQKPGQPPRLLLYWASTREAGVPDRFSGSGSGTDFTLTISSLQAEDVAVYYCQQYFSSPYTFGHGTKLEIK"
3,binds,"BCMA-23 anti-BCMA scFv (scFv, BCMA-22 with the first residue of CDR-L3 (cysteine) replaced by serine) scFv: EVQLVESGGGLVKPGGSLRLSCAASGFTFSDYYMSWIRQAPGKGLEWVSYISSSGSTIYYADSVKGRFTISRDNAKNSLYLQMNSLRAEDTAVYYCAKVDGDYTEDYWGQGTLVTVSSGGGGSGGGGSGGGGSQSALTQPASVSGSPGQSITISCTGSSSDVGKYNLVSWYQQPPGKAPKLIIYDVNKRPSGVSNRFSGSKSGNTATLTISGLQGDDEADYYCSSYGGSRSYVFGTGTKVTVL"

# Target: T2, human BCMA (B-cell maturation antigen) …
# Test: flow cytometry, hBCMA-overexpressing HEK293 compared with OPM2 and RPMI-8226 cells
# Method: Binding of exemplary scFv clones to hBMCA-overexpressing HEK293 cells as compared to OPM2 and RPMI-8226 cell lines that express moderate levels of endogenous BCMA was assessed.
row,Binder,binding result
1,"BCMA-32 anti-BCMA scFv (scFv, VH-(G4S)3-VL scFv) scFv: QVQLVESGGGLVKPGGSLRLSCAASGFTFSDYYMSWIRQAPGKGLEWVSYISSSGSTIYYADSVKGRFTISRDNAKNSLYLQMNSLRAEDTAVYYCAKVDGPPSFDIWGQGTMVTVSSGGGGSGGGGSGGGGSQTVVTQPPSVSVAPGQTARITCGGNNIGSKGVHWYRQRPGQAPEVVIYDDSDRPSGVPDRFSGSNSGNTATLTVRGVEAGDEADYYCQVWDSSSDHWVFGGGTKLTVL",binds
2,"BCMA-9 anti-BCMA scFv (scFv, VH-(G4S)3-VL scFv) scFv: EVQLVQSGGGLVKPGGSLRLSCAASGFTFSDYYMSWIRQAPGKGLEWVSYISSSGSTIYYADSVKGRFTISRDNAKNSLYLQMNSLRAEDTAVYYCARVDGDYVDDYWGQGTLVTVSSGGGGSGGGGSGGGGSSYELTQPPSVSVAPGQTARVTCGANNIGSKSVHWYQQKPGQAPMLVVYDDDDRPSGIPERFSGSNSGNTATLTISGVEAGDEADYFCHVWDRSRDHYVFGTGTKLTVL",binds
3,"BCMA-10 anti-BCMA scFv (scFv, VH-(G4S)3-VL scFv) scFv: EVQLVESGGGLVKPGGSLRLSCAASGFPFSDYYMSWIRQAPGKGLEWVSYISSSGSTIYYADSVKGRFTISRDNAKNSLYLQMNSLRAEDTAVYYCAKVDGPPSFDIWGQGTMVTVSSGGGGSGGGGSGGGGSSYVLTQPPSVSVAPGQTARITCGGNNIERKNVHWYQQKPGQAPVPVVYDDSDRASGIPERFSASNSGNTATLTISGAQATDEAEYYCQAWDSSSTLYVFGTGTKLTVL",binds
4,"BCMA-7 anti-BCMA scFv (scFv, VH-(G4S)3-VL scFv) scFv: QVQLVQSGGGLVQPGRSLRLSCTASGFTFGDYAMSWFRQAPGKGLEWVGFIRSKAYGGTTEYAASVKGRFTISRDDSKSIAYLQMNSLKTEDTAVYYCAAWSAPTDYWGQGTLVTVSSGGGGSGGGGSGGGGSVIQLTQSPSSLSASVGDRVTITCRASQDIGDYLAWFQQRPGKAPKSLIYVASTLQSGVPSRFSGSGSGTHFTLTINSLQPEDFATYYCQQYHSHPWTFGPGTKVDIK",binds
5,"BCMA-8 anti-BCMA scFv (scFv, VH-(G4S)3-VL scFv) scFv: QVQLVQSGGGLVQPGRSLRLSCTASGFTFGDYAMSWFRQAPGKGLEWVGFIRSKAYGGTTEYAASVKGRFTISRDDSKSIAYLQMNSLKTEDTAVYYCAAWSAPTDYWGQGTLVTVSSGGGGSGGGGSGGGGSDIVMTQSPDSLAVSLGERATINCKSSQSVLYSSNNKNYLAWYQQKPGQPPKLLIYWASTRESGVPDRFSGSGSGTDFTLTISSLQAEDVAVYYCQQYYSTPYTFGQGTKLEIK",binds
6,"BCMA-31 anti-BCMA scFv (scFv, VH-(G4S)3-VL scFv) scFv: EVQLVQSGGGLVQPGRSLRLSCTASGFTFGDYAMSWFRQAPGKGLEWVGFIRSKAYGGTTEYAASVKGRFTISRDDSKSIAYLQMNSLKTEDTAVYYCAAWSAPTDYWGQGTLVTVSSGGGGSGGGGSGGGGSDVVMTQSPDSLAVSLGERATISCKSSQSVLNSSNNKNYVAWYKQKPGQPPKLVISWASTRESGVPDRFSGSGSGTDFTLTISSLQAEDVAVYYCQQYYSTPYTFGQGTKLDIK",binds
7,"BCMA-12 anti-BCMA scFv (scFv, VH-(G4S)3-VL scFv) scFv: EVQLVESGGGLVKPGGSLRLSCAASGFTFSDYYMSWIRQAPGKGLEWVSYISSSGSTIYYADSVKGRFTISRDNAKNSLYLQMNSLRAEDTAVYYCAKVDGPPSFDIWGQGTMVTVSSGGGGSGGGGSGGGGSQSALTQPPSVSAAPGQKVTISCSGSRSNIGNNYVSWYQQLPGTAPKLLIYDNAKRPSGIPDRFSGSKSGTSATLDIAGLQTGDEADYYCQVWDSSSDHWVFGGGTKLTVL",binds

# Results, then the binder that gave them:
row,binding result,Binder
1,binds,"BCMA-4 anti-BCMA scFv (scFv, VH-(G4S)3-VL scFv) scFv: QVQLVQSGGGLVQPGRSLRLSCTASGFTFGDYAMSWFRQAPGKGLEWVGFIRSKAYGGTTEYAASVKGRFTISRDDSKSIAYLQMNSLKTEDTAVYYCAAWSAPTDYWGQGTLVTVSSGGGGSGGGGSGGGGSAIRMTQSPSSLSASLGDRVTITCRASQDIRNSLAWYQQRPGKAPKLLLSAASRLESGVPSRFSGTTSGAEYALSISSLQPEDVASYFCQQYYSLPLSFGGGTKVEIK"
2,binds,"BCMA-3 anti-BCMA scFv (scFv, VH-(G4S)3-VL scFv) scFv: QVQLVQSGGGLVQPGRSLRLSCTASGFTFGDYAMSWFRQAPGKGLEWVGFIRSKAYGGTTEYAASVKGRFTISRDDSKSIAYLQMNSLKTEDTAVYYCAAWSAPTDYWGQGTLVTVSSGGGGSGGGGSGGGGSDIVMTQSPDSLVVSLGERATINCKSSQSVLHSSNNKNYLAWYQQKPGQPPKLLIYWASTRESGVPDRFSGSGSGTDFTLTISSLQAEDVAVYYCQQYYTTPLTFGGGTKVEIK"
3,binds,"BCMA-1 anti-BCMA scFv (scFv, VH-(G4S)3-VL scFv) scFv: QVQLVQSGGGLVQPGRSLRLSCTASGFTFGDYAMSWFRQAPGKGLEWVGFIRSKAYGGTTEYAASVKGRFTISRDDSKSIAYLQMNSLKTEDTAVYYCAAWSAPTDYWGQGTLVTVSSGGGGSGGGGSGGGGSDIVMTQSPDSLSVSPGERATISCKSSQSVLSTSNNKNYLAWYQQKPGQPPRLLLYWASTREAGVPDRFSGSGSGTDFTLTISSLQAEDVAVYYCQQYFSSPYTFGHGTKLEIK"
4,binds,"BCMA-2 anti-BCMA scFv (scFv, VH-(G4S)3-VL scFv) scFv: EVQLVESGGGLVKPGGSLRLSCAASGFTFSDYYMSWIRQAPGKGLEWVSYISSSGSTIYYADSVKGRFTISRDNAKNSLYLQMNSLRAEDTAVYYCAKVDGPPSSDIWGQGTMVTVSSGGGGSGGGGSGGGGSEIVMTQSPATLSVSPGETATLSCRASQSIKTNLAWYQQKPGQAPRLLIYAASTRATGIPDRFSGSGSGTDFTLTITRLEPEDFAVYYCQQYGSSPTFGRGTKLEIK"

# Target: T2, human BCMA (B-cell maturation antigen) …
# Test: flow cytometry, hBCMA-expressing HEK293 against parental HEK293 cells
# Method: Binding of exemplary scFv clones to hBMCA-expressing HEK293 cells was assessed and binding was compared to parental HEK293 cells.
row,Binder,fold selective binding (hBCMA-expressing HEK293 over parental HEK293 cells)
1,"BCMA-21 anti-BCMA scFv (scFv, VH-(G4S)3-VL scFv) scFv: EVQLVESGGGLVKPGGSLKLSCAASGFTFSDYYMSWIRQAPGKGLEWVSYISSSGSTIYYADSVKGRFTISRDNAKNSLYLQMNSLRAEDTAVYYCAKVDGGYTEDYWGQGTLVTVSSGGGGSGGGGSGGGGSQSVLTQPPSASGTPGQRVTISCSGSGSNIGSNDVSWYQQIPGTAPKLLIYWNDQRPSGVPDRFSGSKSGISASLAISGLRSEDEADYYCAAWDDSLNGYVFGTGTKVTVL",3.4 fold
2,"BCMA-22 anti-BCMA scFv (scFv, VH-(G4S)3-VL scFv) scFv: EVQLVESGGGLVKPGGSLRLSCAASGFTFSDYYMSWIRQAPGKGLEWVSYISSSGSTIYYADSVKGRFTISRDNAKNSLYLQMNSLRAEDTAVYYCAKVDGDYTEDYWGQGTLVTVSSGGGGSGGGGSGGGGSQSALTQPASVSGSPGQSITISCTGSSSDVGKYNLVSWYQQPPGKAPKLIIYDVNKRPSGVSNRFSGSKSGNTATLTISGLQGDDEADYYCCSYGGSRSYVFGTGTKVTVL",7.5 fold

# Other lines, results leading:
row,fold selective binding (hBCMA-expressing HEK293 over parental HEK293 cells),Binder
1,2.2 fold,"BCMA-18 anti-BCMA scFv (scFv, VH-(G4S)3-VL scFv) scFv: EVQLLESGGGLVQPGGSLRLSCAASGFTFSSYWMSWHRQAPGKGPEWVAHINQDGSEKYYVDSVKGRFTISRDNAESSLYLQMNSLRAEDTAVYYCARWLAVTNWGQGTLVTVSSGGGGSGGGGSGGGGSQSVLTQPPSASGTPGQRVTISCSGSGSNIGSNDVSWYQQIPGTAPKLLIYWNDQRPSGVPDRFSGSKSGTSASLAISGLRSEDEADYYCAAWDDSLNGWVFGGGTKLTVL"
2,10.8 fold,"BCMA-20 anti-BCMA scFv (scFv, VH-(G4S)3-VL scFv) scFv: EVQLLESGGGLVQPGRSLRLSCAASGFTFDDYAMHWVRQAPGKGLEWVSGISWNSGSIGYADSVKGRFTISRDNAKNSLYLQMNSLRAEDTALYYCAKGGLGITPYYFDYWGQGTLVTVSSGGGGSGGGGSGGGGSQPVLTQPPSASGTPGQRVTISCSGGKTVNWFRQVPGTAPQLLIYSNDQRPSGVPDRFSGSKSGSSASLDISGLQSEDEAYYYCGSWDDSLNAWVFGGETKLTVL"
